Reference: PMC3093369
Where “and” joins values, the source holds several entries; their conditions need not be identical. Equal values may be shown once.

Columns and labels:
[1] = target: recombinant Fasciola hepatica helminth defence molecule-1 (FhHDM-1) (Fasciola hepatica); test: AUC; sedimentation velocity, 0.1 mg/ml, 20°C, 10 mM sodium citrate, 50 mM NaF, pH 4.5, 40,000 rpm; c(s) and c(M) distributions (SEDFIT)
[2] = target: recombinant Fasciola hepatica helminth defence molecule-1 (FhHDM-1) (Fasciola hepatica); test: AUC; sedimentation velocity, 0.1 mg/ml, 20°C, 10 mM Tris, 50 mM NaF, pH 7.3, 40,000 rpm; c(s) and c(M) distributions (SEDFIT)

“recombinant Fasciola hepatica helminth defence molecule-1 (FhHDM-1) (natural protein)” was tested, and the stoichiometry N [1] was 2 and 5 and the stoichiometry N [2] was 3.
